In PMC9584954:
One block for each substance: values may come before it.

Columns and labels:
[1] = target: Flag-Strep2-tagged Methanococcus aeolicus McrG (tag at the N-terminus of McrG, NG) (Methanococcus aeolicus); experiment: native MS; intact protein mass spectrometry (12 T FT-ICR, nano-electrospray) of purified NG-tagged MCRaeo, 10 μM in 200 mM ammonium acetate pH 7.6
[2] = target: Flag-Strep2-tagged Methanococcus aeolicus McrA (tag at the C-terminus of McrA, CA) (Methanococcus aeolicus); experiment: affinity purification with mass spectrometry; Flag-Strep2-tagged subunit expressed with its mcr operon (full or truncated) in M. maripaludis at 37 °C; lysate on Strep-Tactin Superflow Plus in 100 mM Tris-HCl pH 7.6, 150 mM NaCl, eluted with 2.5 mM desthiobiotin, then Q-Sepharose anion exchange; SDS-PAGE, bands identified by MALDI-TOF MS, relative abundance by LC-MS/MS
[3] = target: Flag-Strep2-tagged Methanococcus aeolicus McrB (tag at the N-terminus of McrB, NB) (Methanococcus aeolicus); experiment: as above
[4] = target: Flag-Strep2-tagged Methanococcus aeolicus McrG (tag at the N-terminus of McrG, NG) (Methanococcus aeolicus); experiment: as above
[5] = target: Methanococcus aeolicus McrA (untagged) (Methanococcus aeolicus); experiment: native MS; intact protein mass spectrometry (12 T FT-ICR, nano-electrospray) of purified NG-tagged MCRaeo, 10 μM in 200 mM ammonium acetate pH 7.6
[6] = target: Methanococcus aeolicus McrB (untagged) (Methanococcus aeolicus); experiment: as above

stoichiometry N [1]: 2
Substance: Flag-Strep2-tagged Methanococcus aeolicus McrG (tag at the N-terminus of McrG, NG) (natural protein)

percent of the total McrG in the purified complex [2]: 30% | percent of the total McrG in the purified complex [3]: 30% | percent of the total McrG in the purified complex [4]: 30%
Substance: untagged host Methanococcus maripaludis McrG (natural protein)

stoichiometry N [5]: 2
Substance: Methanococcus aeolicus McrA (untagged) (natural protein)

stoichiometry N [6]: 2
Substance: Methanococcus aeolicus McrB (untagged) (natural protein)
